This is an account of results in article PMC3094553 (Nature methods, 2009).

The term stoichiometry N denotes a count of units in the complex or per binding partner.

“And” between values parts separate entries of the source, which are not always exact repeats. Equal values may be shown once. Bounds are passed on as bounds.

The labels stand for the following.
B1: PF1033 (thioredoxin-like fold) (natural protein)
chain: MIVIGEKFPEVEVKTTHGVIKLPDHFTKQGKWFMLFSHPADFTPVCTTEFYGLQIRLEKFRELGVEPIGLSVDQVFSHLKWMEWIKEKLGVEIEFPVIADDRGDLAEKLGMIPSGSTITARAVFIVDDKGIIRAIVYYPAEVGRDWDEILRLVKALKISTEKGVALPHKWPNNELIGDKVIVPPASSVEQIKEREEAKAKGEIECYDWWFCYKKLE
B2: ferredoxin (PF1909, Fd) (natural protein)
chain: AWKVSVDQDTCIGDAICASLCPDVFEMNDEGKAQPKVEVIEDEELYNCAKEAMEACPVSAITIEEA
B3: PF1372 (conserved hypothetical protein) (natural protein)
chain: MTEIRYYKIGEDRFKISEDEVARRELRVAKVSDDVIQIQEEVHGIIALVGATSSVNIKKEELKELVKLVREEFGWDI
B4: acetyl-CoA synthetase subunit (PF1787) (natural protein)
chain: MDRVAKAREIIEKAKAENRPLVEPEAKEILKLYGIPVPEFKVARNEEEAVKFSGEIGYPVVMKIVSPQIIHKSDAGGVKINIKNDEEAREAFRTIMQNARNYKPDADLWGVIIYRMLPLGREVIVGMIRDPQFGPAVMFGLGGIFVEILKDVSFRVAPITKEDALEMIREIKAYPILAGARGEKPVNIEALADIIVKVGELALELPEIKEIDINPIFAYEDSAIAVDARMIL
B5: PF1911 (ferredoxin NADP reductase) (natural protein)
chain: MYKILEKKEIAMRNTWYKVYAPHVAKKVQPGQFVIVRAFPNGERIPLTPVMWDREEGWIVLIVFTRGKTTMRMAVELKEGDSLLNVAGPLGTPVPMEKFGKILAIGAYTGIVEVYPIAKAWQEIGNDVTTLHVTFEPMVILKEELEKAVTRHIVEPVPLNPNQDFLANMKNVSQRLKEKVRELLESEDWDLVFMVGPVGDQKQVFEVVKEYGVPMKVDLHPIMVDGTGMCGACRVTVGGEVKFACVDGPEFDAYQVDWDELIHRVGFYAKLEKLALEKYMEELKAKGVI
B6: PF0939 (isopropylmalate dehydratase) (natural protein)
chain: MKARGRAWKYGDNIDTDVIIPARYLNTSDPKELAQHVLEDLDPEFRYKMKPGDIIVAGENFGCGSSREHAPLAIKAAGVSAVIAKSFARIFYRNAINIGLPILEAPEAVERIETGDEIEIDFSTGEIRNLTKGEVYHANPFPEFIMEIIKAGGLVEWAKRRLAK
B7: PF1950 (phosphoribosyl transferase) (natural protein)
chain: MKKFPAYLASWEDIENWAKAGAWKVLESGWMPDVIVGLARGGWIAARLYCDYLGVKDLVSIKVEHWGVTATPDGRARLKYGAQYDFEGKKVLIVDDITDTGESMSLAYEYMKSRNPAEIRTATLLNIKGSKFVPDYYAKDIDWVWVVFPWNFVEDMINLTNNLFEEKDKLTTDEIISLFKELHGIEVPREKLEEALRMAEKRKIFKFENGFWTKV
B8: PF1291 (phosphoesterase) (natural protein)
chain: MVYVAVLANIAGNLPALTAALSRIEEMREEGYEIEKYYILGNIVGLFPYPKEVIEVIKDLTKKENVKIIRGKYDQIIAMSDPHATDPGYIDKLELPGHVKKALKFTWEKLGHEGREYLRDLPIYLVDKIGGNEVFGVYGSPINPFDGEVLAEQPTSYYEAIMRPVKDYEMLIVASPMYPVDAMTRYGRVVCPGSVGFPPGKEHKATFALVDVDTLKPKFIEVEYDKKIIEERIRAEGLPEEIIKILYHGGRP
B9: PF0259 (conserved hypothetical protein) (natural protein)
chain: MAVIIEFSLIPLGEVSVSKYIAEAIKLLEEKGVKYQLTPMGTIIEVGSVEEGLKIVGEAHELMFKLGVKRVVTHIKIDDRRDKERKMEDKVKSVIEKVKK
B10: PF0380 (conserved hypothetical protein) (natural protein)
chain: MGVEKVPKYDIPVKKVEYVFIELDKMKPHEQLVQRELEDFIESVTGSGIFWKPMLLAKIPGTDEYLIVDGHHRWAGLQKLGAKRAPSVILDYFDEGVKVYTWYPAFKGDVNKVIERLKAEGLEVIEDEKAEEKAEKGEIAFALIGEKSFAIPGGLEEQKKVSKVLDEMDQAKEIELVYYGLKEDAKADMEKGEIDYVFIRKAPTKEEVMELVKRGEVFSPKTTRHVLPFIPDKIDVKLEDLF
B11: PF0230 (ArsR transcription regulator) (natural protein)
chain: MTKRVKVITDPEVIKVMLEDTRRKILQLLRNREMTISQLSEILGKMPQTIYHHIEKLKEAGLVEVKRTEMKGNLVEKYYGRTADVFYINLYMGDEELRYLARSRLKTKLDIFKKLGYKFDEEELLNVMDRILEKEHEVKVEISKEIENVEDSLKEFSNEDIIHAIEWLAMARLAQDEEYIELVKKLGQILKR
B12: PF0619 (conserved hypothetical protein) (natural protein)
chain: MLVPGRVYLFRIPEGKEIIEFLREFAEKENIKVGIISAIGTLRNPVIGYFMEEEKKYKEISLTGTYELLSLSGNISLKDGKPFVHAHVVLGDSEGRAFGGHLVRGEVFVAEVFVQELEGETLERKPTEHGLALW
B13: superoxide reductase (PF1281, SOR) (enzyme)
chain: MISETIRSGDWKGEKHVPVIEYEREGELVKVKVQVGKEIPHPNTTEHHIRYIELYFLPEGENFVYQVGRVEFTAHGESVNGPNTSDVYTEPIAYFVLKTKKKGKLYALSYCNIHGLWENEVTLE
B14: PF0094 (glutaredoxin-like) (natural protein)
chain: MGLISDADKKVIKEEFFSKMVNPVKLIVFVRKDHCQYCDQLKQLVQELSELTDKLSYEIVDFDTPEGKELAKRYRIDRAPATTITQDGKDFGVRYFGLPAGHEFAAFLEDIVDVSREETNLMDETKQAIRNIDQDVRILVFVTPTCPYCPLAVRMAHKFAIENTKAGKGKILGDMVEAIEYPEWADQYNVMAVPKIVIQVNGEDRVEFEGAYPEKMFLEKLLSALS
B15: PF0715 (NADH oxidase) (natural protein)
chain: MEFFEVLKKRRSIRRFQDKPVPRELIEKLLEAAFLSPSSYNKRPCHFIVVDDREKLEALSKSKLGASGLKTAPVAIVVTADESKSDVWIEDASIAAEHIHLASYALGLASFWVQIRNRMHNETKTAEEYVRELLNIPENYRVLCIIGVGYPAEDKPPHGNEVFEWEKVSYNEFGKRFK
B16: PF0014/0015 complex (complex)
chain 1: MEEKKPVNLVLPEVENAIFIEGYPGVGLVGHIAANFLAKELDMDLIGYVDSLFIPPMSLILEGRPTPPLRFYGKNNIIIAIADIFLPPTLVNEIAKEIVNYLKKVNAEKVISLAGMGIGFFKDTFEVWGIGGSEEENKELESLGVKILKYGSITGMSGKLLWEASRAGLKSYVLLGETFGDRPDPRAAANVVEVLNKMLGLNVSVEPLLKEAEMIEEQLRRMHEQMEEARRKMERQYETMYL
chain 2: MVVEIPLLSGIARRTLDALMRNPIRTVEIRNARNYMTLEKVKEGDLVFLTYESLEDVMRGTEGIIAMVTRMEKSHQRVPWEESDEREISICRVQLKLVGLGRVVEVQEKNGVVFVKVREMLHHEISMG

One data set deals with the molecule itself. Put plainly: SAXS.
On to B1, for which the “stoichiometry N” value amounted to 10. In the case of B2, the “percent of the sample as 2-mer” value was found to be 40% and the “stoichiometry N” value stood at 2. Regarding B3, the “stoichiometry N” value worked out at 4.

On to B4, for which the “stoichiometry N” value is 3. The same measure, in the same setting: under B5 stands 2; under B6, 2. Same read-out and setting: under B7 stands 2; under B8, 4. Consider B9, for which the “stoichiometry N” value came to 8. Consider B10, for which the “percent of the sample as 2-mer” value was 68% and the “stoichiometry N” value is 2. As for B11, the “stoichiometry N” value worked out at 2.

Regarding B12, the “stoichiometry N” value is 3.

For the protein B13, the “stoichiometry N” value turned out to be 4. As for B14, the “percent of the sample as 2-mer” value was 92%; the “stoichiometry N” value is 4 and 2. Regarding B15, the “stoichiometry N” value was found to be 2.

The next data set concerns the molecule itself. Put plainly: SAXS. The source holds these as a separate data set.
In the case of B16, the “stoichiometry N” value is greater than 8.
